Experiments:
Details in all cases: both partners purified
[1] = molecular target: T1, human B-cell maturation antigen (BCMA), extracellular domain (Homo sapiens (Human)., UniProt Q02223); assay: SPR; ProteOn XPR36; whole IgG (15 µg/ml) immobilised on GLH chip by amine chemistry; BCMA as mobile phase in PBS with 0.005% Tween-20 (0.4-90 nM hBCMA, 2.7 nM-1 µM cBCMA); Kd from kon and koff, single-site model
T1 construct: B-cell maturation antigen (BCMA), human; soluble form used as mobile phase in SPR and in the Fab:BCMA crystals; holds the DxL loop (L17) and H19; also called hBCMA; human BCMA
T1 sequence (Q02223 1-54): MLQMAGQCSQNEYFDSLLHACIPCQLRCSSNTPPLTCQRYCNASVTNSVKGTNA

[2] = molecular target: T2, cynomolgus BCMA (Macaca fascicularis, UniProt A0A2K5UD97); assay: as above
T2 construct: B-cell maturation antigen (BCMA), cynomolgus monkey (macaque); differs from human BCMA at three positions: alanine 20 is aspartic acid, isoleucine 22 is lysine, asparagine 31 of hBCMA is deleted; also called cynoBCMA; cBCMA

[3] = molecular target: T1, human B-cell maturation antigen (BCMA), …; assay: crystal structure; Fab:BCMA complexes; 21% PEG 3350, 0.1 M BisTris pH 6.5, 5 mM CuCl2, 20 °C; molecular replacement

Kd [1] [nM] | binding result [2] | binding result [1] | binding result [3] | Binder
15 | binds | – | – | J22.9-H, humanized IgG (all humanizing substitutions in VH and VL except A46L in VL) (antibody, V domains shown, humanized VH (hVH, 16 changes against the mouse VH); human IgG1 heavy chain constant region, as told for J22.9-xi; Fab light chain in PDB 8QY9; whole IgG in SPR and FACS; source: expressed, purified) VH: EVQLVESGGGLVQPGGSLRLSCAASGFTFSRYWMSWVRQAPGKGLVWVGEINPDSSTINYAPSLKDKFTISRDNAKNTLYLQMNSLRAEDTAVYYCASLYYDYGDAMDYWGQGTLVTVSS VL: EIVMTQSPATLSVSPGERATLSCKASQSVDSNVAWYQQKPGQAPRALIYSASLRFSGIPARFSGSGSGTEFTLTISSLQSEDFAVYYCQQYNNYPLTFGAGTKLELK
– | binds | binds | – | J22.9-FSY, humanized and CDR-optimized IgG (antibody, V domains shown, as the VH of m5 (J22.9-H); human IgG1 heavy chain constant region, as told for J22.9-xi; as the light chain of m5 (J22.9-H; no structure of this variant; source: expressed, purified)) VH: EVQLVESGGGLVQPGGSLRLSCAASGFTFSRYWFSWVRQAPGKGLVWVGEINPSSSTINYAPSLKDKFTISRDNAKNTLYLQMNSLRAEDTAVYYCASLYYDYGDAYDYWGQGTLVTVSS VL: EIVMTQSPATLSVSPGERATLSCKASQSVESNVAWYQQKPGQAPRALIYSASLRFSGIPARFSGSGSGTEFTLTISSLQSEDFAVYYCQQYNNYPLTFGAGTKLELK
– | binds | binds | – | J22.9-ISY, humanized and CDR-optimized IgG (antibody, V domains shown, as the VH of m5 (J22.9-H; human IgG1 heavy chain constant region, as told for J22.9-xi; source: expressed, purified)) VH: EVQLVESGGGLVQPGGSLRLSCAASGFTFSRYWISWVRQAPGKGLVWVGEINPSSSTINYAPSLKDKFTISRDNAKNTLYLQMNSLRAEDTAVYYCASLYYDYGDAYDYWGQGTLVTVSS VL: EIVMTQSPATLSVSPGERATLSCKASQSVESNVAWYQQKPGQAPRALIYSASLRFSGIPARFSGSGSGTEFTLTISSLQSEDFAVYYCQQYNNYPLTFGAGTKLELK
– | – | – | binds | J22.9-ISY Fab fragment (Fab, V domains shown, Fab heavy chain; as the light chain of m7 (light chain of J22.9-H with D30E); Crystallised in complex with BCMA) VH: EVQLVESGGGLVQPGGSLRLSCAASGFTFSRYWISWVRQAPGKGLVWVGEINPSSSTINYAPSLKDKFTISRDNAKNTLYLQMNSLRAEDTAVYYCASLYYDYGDAYDYWGQGTLVTVSS VL: EIVMTQSPATLSVSPGERATLSCKASQSVESNVAWYQQKPGQAPRALIYSASLRFSGIPARFSGSGSGTEFTLTISSLQSEDFAVYYCQQYNNYPLTFGAGTKLELK
0.28 | binds | – | – | J22.9-xi, chimaeric mouse/human IgG (antibody, V domains shown, mouse VH of J22.9 (mVH); mouse VL of J22.9 (mVL); Fab light chain in PDB 4ZFO; IgG1; whole IgG immobilised in SPR) VH: QVQLQQSGGGLVQPGGSLKLSCAASGIDFSRYWMSWVRRAPGKGLEWIGEINPDSSTINYAPSLKDKFIISRDNAKNTLYLQMSKVRSEDTALYYCASLYYDYGDAMDYWGQGTSVTVSS VL: DIVMTQSQRFMTTSVGDRVSVTCKASQSVDSNVAWYQQKPRQSPKALIFSASLRFSGVPARFTGSGSGTDFTLTISNLQSEDLAEYFCQQYNNYPLTFGAGTKLELK
